According to patent US20200323902:
Changes are numbered by the printed parent chain.

Experiments:
Assay in all cases: cell_activity
[1] = system: T1, TcBuster V377T/E469K V377T,E469K (Tribolium castaneum); conditions: primary human CD3+ T cells, mean; nearly 2-fold over WT at day 14; unit inferred from figure legend
T1 sequence: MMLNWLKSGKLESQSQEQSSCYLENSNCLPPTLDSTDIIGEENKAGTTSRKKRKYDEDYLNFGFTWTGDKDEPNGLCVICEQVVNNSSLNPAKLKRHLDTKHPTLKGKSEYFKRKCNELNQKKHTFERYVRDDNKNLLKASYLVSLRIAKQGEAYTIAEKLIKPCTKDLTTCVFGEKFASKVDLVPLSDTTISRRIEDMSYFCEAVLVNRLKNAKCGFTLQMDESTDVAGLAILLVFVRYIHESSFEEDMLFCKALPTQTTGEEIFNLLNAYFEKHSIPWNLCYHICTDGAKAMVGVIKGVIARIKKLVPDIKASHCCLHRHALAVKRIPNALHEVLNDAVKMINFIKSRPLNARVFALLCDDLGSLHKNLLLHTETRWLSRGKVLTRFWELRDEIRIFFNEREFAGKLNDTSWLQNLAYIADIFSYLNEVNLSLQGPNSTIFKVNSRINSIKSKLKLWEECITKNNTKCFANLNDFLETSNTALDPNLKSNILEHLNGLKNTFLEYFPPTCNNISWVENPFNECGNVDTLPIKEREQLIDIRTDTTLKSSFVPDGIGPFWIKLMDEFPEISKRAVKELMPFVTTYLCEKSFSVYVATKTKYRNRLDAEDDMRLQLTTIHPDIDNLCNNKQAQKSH

[2] = system: T2, TcBuster D189A/V377T/E469K (Tribolium castaneum); conditions: primary human CD3+ T cells, mean; nearly 2-fold over WT at day 14; unit inferred from figure legend
T2 sequence: T1 sequence with D189A

[3] = system: Sleeping Beauty transposase SB11 (synthetic); conditions: primary human CD3+ T cells, mean; unit inferred from figure legend

## mini-circle transposon with TcBuster and Sleeping Beauty IR/DRs, GFP cargo
[1]
  activity: 20.2 % GFP+ cells
[2]
  activity: 24.1 % GFP+ cells
[3]
  activity: 8.4 % GFP+ cells
